What all share (assay): MST
For assay [1], the target named is SRS-MTBD (22/19) D3402A mutant (not stated | mouse).
Assay [2] shares this target. The source holds these as a separate data set.
The target is the same in assay [3]. The source holds these as a separate data set.
For assay [4] the target is unchanged. The source holds these as a separate data set.

“And” between values parts separate entries of the source, which are not always exact repeats. Equal entries are not always repeated. Where two headings read alike, the source gives them in different places.

Drawing on publication PMC9117880, this text covers Kd for one substance.

By Kd is commonly meant the concentration at which binding is half-saturated. A lower Kd goes with a tighter complex.

Turning to “taxol-stabilized, unlabeled microtubules (porcine brain tubulin) (from UniProt P02550 1-451) (complex)”, the equilibrium dissociation constant (Kd) in assay [1] is 0.46 µM; in assay [2] it was 5.49 µM; in assay [3], 13 µM and 14.7 µM; in assay [4] it was 0.53 µM.
